Here are results for one substance from patent publication US9109032.

The target in this experiment is EphA3 antigen (UniProt P29320). The experiment can be described thus: ELISA. (ELISA stands for enzyme-linked immunosorbent assay.)
Sequence of UniProt P29320 (P29320 21-541 limits assumed): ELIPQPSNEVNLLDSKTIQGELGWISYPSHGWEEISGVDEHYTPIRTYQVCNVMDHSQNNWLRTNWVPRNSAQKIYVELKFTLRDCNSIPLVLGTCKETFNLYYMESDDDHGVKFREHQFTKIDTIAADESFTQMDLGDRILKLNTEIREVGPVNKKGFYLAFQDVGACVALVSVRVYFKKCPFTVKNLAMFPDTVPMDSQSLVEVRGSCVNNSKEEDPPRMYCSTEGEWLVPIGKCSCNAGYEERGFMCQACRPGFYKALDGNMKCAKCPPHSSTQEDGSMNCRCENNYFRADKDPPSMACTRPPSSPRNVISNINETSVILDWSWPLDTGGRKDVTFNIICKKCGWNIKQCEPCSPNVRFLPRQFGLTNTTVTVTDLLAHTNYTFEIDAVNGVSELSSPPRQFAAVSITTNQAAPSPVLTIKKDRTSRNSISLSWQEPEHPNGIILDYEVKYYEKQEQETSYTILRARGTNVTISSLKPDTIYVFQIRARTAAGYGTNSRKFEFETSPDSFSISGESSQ

The substance monoclonal antibody IIIA4 had an AFFINITY of 2.5 nM.
